Test [1] addresses T1, BRAF V600E peptide (biotinylated synthetic peptide including the amino acids of and surrounding the BRAF … (also: biotinylated (position not given here))).
T1 peptide: GLATEKSRWSG
The experiment in a line: BLI.

In test [2] the target is BRAF in colorectal cancer specimens with V600E mutation status: negative (human) (UniProt P15056). The experiment in a line: IHC, FLEX++ Dako OMNIS, CRC block 6 BRAF-, V600E mutation status negative.
Test [3] has the same target. The experiment in a line: IHC, FLEX++ Dako OMNIS, CRC block 9 BRAF-, V600E mutation status negative.
Test [4] shares this target. The test is described as follows: IHC, FLEX++ Dako OMNIS, CRC block 7 BRAF-, V600E mutation status negative.
For test [5] the target is unchanged. The experiment in a line: IHC, FLEX++ Dako OMNIS, CRC block BRAF- (slide 51), V600E mutation status negative. Also noted: scale not given here.
Test [6] shares this target. The experiment in a line: IHC, FLEX++ Dako OMNIS, CRC block 8 BRAF-, V600E mutation status negative.
Test [7] shares this target. The test is described as follows: IHC, FLEX++ Dako OMNIS, CRC block BRAF- (slide 52), V600E mutation status negative.
Test [8] has the same target. The experiment in a line: IHC, FLEX++ Dako OMNIS, CRC block 10 BRAF-, V600E mutation status negative (clinical status Equivocal/Negative).

No end group written: not given here.

Experimental findings from US20230416400A1 (published 2023) are described below.

Usually Kd stands for the equilibrium constant for the complex coming apart.

B1: chimeric BRAF V600E antibody (mouse variable domains, rabbit IgG heavy chain and rabbit kappa1 light chain constant domains; heavy chain SEQ ID NO:2 and light … (antibody, V domains shown)
VH: QAYLQQSGAELVRPGASVKMSCKASGYTFTSYNMHWIKQTPRQGLEWIGAIYPGNGDTSYNQKFKGKATLTVDRSSNTAYMQLSSLTSEDSAVYFCARDGISPWGQGTLVTVSS
VL: DIKMTQSPSSMYASLGERVTITCKASQDINRYLSWFQQKPGKSPKTLIYRANRVLDGVPSRFSGSGSGQDYSLTISSLESEDMGIYYCLHYDEYPYTYGGGTKLEIKG
Take B1: in test [1], binding was characterised by a dissociation constant (Kd) of 5.05 pM. Moreover, the Tumor cells staining intensity in test [2] was 0.125; in test [3] it was 0.125; in test [4], 0.125; in test [5], 0.125; in test [6], 0; in test [7], 0.125. In addition, the Tumor cells staining intensity in test [8] was determined as 0.25.

B2: recombinant mouse anti-human BRAF V600E antibody (mouse IgG2a heavy chain, mouse kappa1 light chain) (antibody, V domains shown)
VH: B1 VH
VL: DIKMTQSPSSMYASLGERVTITCKASQDINRYLSWFQQKPGKSPKTLIYRANRVLDGVPSRFSGSGSGQDYSLTISSLESEDMGIYYCLHYDEYPYTYGGGTKLEIK
Take B2: the affinity in test [1], expressed as Kd, was 4.86 pM.
